Among the data in the Human Domainome abundance scans (Beltran et al. 2025) are abundance fitness values, retold here.

± gives the uncertainty stated by the source.

B1: DnaJ homolog subfamily C member 5, residues 16 to 77; numbered along this chain, Q9H3Z4 (parent)
chain: LYHVLGLDKNATSDDIKKSYRKLALKYHPDKNPDNPEAADKFKEINNAHAILTDATKRNIYD

The variants in the data set derive from B1. Put plainly: abundance fitness (aPCA) (normalised: wild type 0, dead -1); higher = more abundant; growth selection in yeast, the domain comes from the species named. To be noted: Homo sapiens.
Regarding LYHVLGLDKNATSADIKKSYRKLALKYHPDKNPDNPEAADKFKEINNAHAILTDATKRNIYD [D14A], the abundance fitness was -0.166 ± 0.094.
As to LYHVLGLDKNATSQDIKKSYRKLALKYHPDKNPDNPEAADKFKEINNAHAILTDATKRNIYD [D14Q], the abundance fitness is -0.394 ± 0.1.
In the case of LYHVLGLDKNATSGDIKKSYRKLALKYHPDKNPDNPEAADKFKEINNAHAILTDATKRNIYD [D14G], the abundance fitness is -0.401 ± 0.065.
Take LYHVLGLDKNATSKDIKKSYRKLALKYHPDKNPDNPEAADKFKEINNAHAILTDATKRNIYD [D14K]: the abundance fitness was -0.209 ± 0.12.
As to LYHVLGLDKNATSIDIKKSYRKLALKYHPDKNPDNPEAADKFKEINNAHAILTDATKRNIYD [D14I], the abundance fitness was -0.105 ± 0.14.
On to LYHVLGLDKNATSEDIKKSYRKLALKYHPDKNPDNPEAADKFKEINNAHAILTDATKRNIYD [D14E], for which the abundance fitness is -0.048 ± 0.099.
Then LYHVLGLDKNATSLDIKKSYRKLALKYHPDKNPDNPEAADKFKEINNAHAILTDATKRNIYD [D14L], with -0.238 ± 0.073.
In the case of LYHVLGLDKNATSPDIKKSYRKLALKYHPDKNPDNPEAADKFKEINNAHAILTDATKRNIYD [D14P], the abundance fitness was -0.348 ± 0.11.
In the case of LYHVLGLDKNATSNDIKKSYRKLALKYHPDKNPDNPEAADKFKEINNAHAILTDATKRNIYD [D14N], the abundance fitness is -0.151 ± 0.15.
Regarding LYHVLGLDKNATSFDIKKSYRKLALKYHPDKNPDNPEAADKFKEINNAHAILTDATKRNIYD [D14F], the abundance fitness was -0.848 ± 0.3.
In the case of LYHVLGLDKNATSCDIKKSYRKLALKYHPDKNPDNPEAADKFKEINNAHAILTDATKRNIYD [D14C], the abundance fitness was -0.549 ± 0.11.
As for LYHVLGLDKNATIDDIKKSYRKLALKYHPDKNPDNPEAADKFKEINNAHAILTDATKRNIYD [S13I], the abundance fitness came to 0.046 ± 0.18.
Then LYHVLGLDKNATLDDIKKSYRKLALKYHPDKNPDNPEAADKFKEINNAHAILTDATKRNIYD [S13L], with -0.04 ± 0.073.
For LYHVLGLDKNATYDDIKKSYRKLALKYHPDKNPDNPEAADKFKEINNAHAILTDATKRNIYD [S13Y], the abundance fitness was -0.188 ± 0.11.
As for LYHVLGLDKNATGDDIKKSYRKLALKYHPDKNPDNPEAADKFKEINNAHAILTDATKRNIYD [S13G], the abundance fitness is -0.376 ± 0.077.
Regarding LYHVLGLDKNATDDDIKKSYRKLALKYHPDKNPDNPEAADKFKEINNAHAILTDATKRNIYD [S13D], the abundance fitness was 0.068 ± 0.11.
Regarding LYHVLGLDKNATEDDIKKSYRKLALKYHPDKNPDNPEAADKFKEINNAHAILTDATKRNIYD [S13E], the abundance fitness is -0.023 ± 0.087.
Then LYHVLGLDKNATPDDIKKSYRKLALKYHPDKNPDNPEAADKFKEINNAHAILTDATKRNIYD [S13P], with -0.272 ± 0.089; and LYHVLGLDKNATADDIKKSYRKLALKYHPDKNPDNPEAADKFKEINNAHAILTDATKRNIYD [S13A], with -0.116 ± 0.082.
Then LYHVLGLDKNATCDDIKKSYRKLALKYHPDKNPDNPEAADKFKEINNAHAILTDATKRNIYD [S13C], with -0.215 ± 0.12; and LYHVLGLDKNATHDDIKKSYRKLALKYHPDKNPDNPEAADKFKEINNAHAILTDATKRNIYD [S13H], with -0.496 ± 0.15; and LYHVLGLDKNATRDDIKKSYRKLALKYHPDKNPDNPEAADKFKEINNAHAILTDATKRNIYD [S13R], with -0.354 ± 0.072.
With LYHVLGLDKNATMDDIKKSYRKLALKYHPDKNPDNPEAADKFKEINNAHAILTDATKRNIYD [S13M], the abundance fitness amounted to 0.04 ± 0.12.
Consider LYHVLGLDKNATWDDIKKSYRKLALKYHPDKNPDNPEAADKFKEINNAHAILTDATKRNIYD [S13W], for which the abundance fitness was -0.336 ± 0.098.
Then LYHVLGLDKNATFDDIKKSYRKLALKYHPDKNPDNPEAADKFKEINNAHAILTDATKRNIYD [S13F], with -0.267 ± 0.091; and LYHVLGLDKNATTDDIKKSYRKLALKYHPDKNPDNPEAADKFKEINNAHAILTDATKRNIYD [S13T], with 0.055 ± 0.12.
For LYHVLGLDKNATNDDIKKSYRKLALKYHPDKNPDNPEAADKFKEINNAHAILTDATKRNIYD [S13N] the value was 0.002 ± 0.23.
Turning to LYHVLGLDKNATVDDIKKSYRKLALKYHPDKNPDNPEAADKFKEINNAHAILTDATKRNIYD [S13V], the abundance fitness was -0.162 ± 0.07.
Then LYHVLGLDKLATSDDIKKSYRKLALKYHPDKNPDNPEAADKFKEINNAHAILTDATKRNIYD [N10L], with -0.342 ± 0.075.
For the variant LYHVLGLDKFATSDDIKKSYRKLALKYHPDKNPDNPEAADKFKEINNAHAILTDATKRNIYD [N10F], the abundance fitness is -0.371 ± 0.11.
Take LYHVLGLDKTATSDDIKKSYRKLALKYHPDKNPDNPEAADKFKEINNAHAILTDATKRNIYD [N10T]: the abundance fitness was -0.073 ± 0.13.
For LYHVLGLDKQATSDDIKKSYRKLALKYHPDKNPDNPEAADKFKEINNAHAILTDATKRNIYD [N10Q], the abundance fitness is -0.266 ± 0.087.
Then LYHVLGLDKSATSDDIKKSYRKLALKYHPDKNPDNPEAADKFKEINNAHAILTDATKRNIYD [N10S], with -0.142 ± 0.078; and LYHVLGLDKPATSDDIKKSYRKLALKYHPDKNPDNPEAADKFKEINNAHAILTDATKRNIYD [N10P], with -0.818 ± 0.14.
For the variant LYHVLGLDKDATSDDIKKSYRKLALKYHPDKNPDNPEAADKFKEINNAHAILTDATKRNIYD [N10D], the abundance fitness is -0.343 ± 0.15.
Turning to LYHVLGLDKEATSDDIKKSYRKLALKYHPDKNPDNPEAADKFKEINNAHAILTDATKRNIYD [N10E], the abundance fitness was -0.343 ± 0.098.
LYHVLGLDKAATSDDIKKSYRKLALKYHPDKNPDNPEAADKFKEINNAHAILTDATKRNIYD [N10A]: the abundance fitness was -0.293 ± 0.062.
LYHVLGLDKVATSDDIKKSYRKLALKYHPDKNPDNPEAADKFKEINNAHAILTDATKRNIYD [N10V]: the abundance fitness is -0.711 ± 0.069.
Regarding LYHVLGLDKWATSDDIKKSYRKLALKYHPDKNPDNPEAADKFKEINNAHAILTDATKRNIYD [N10W], the abundance fitness is -0.4 ± 0.068.
Then LYHVLGLDKRATSDDIKKSYRKLALKYHPDKNPDNPEAADKFKEINNAHAILTDATKRNIYD [N10R], with -0.464 ± 0.068; and LYHVLGLDKYATSDDIKKSYRKLALKYHPDKNPDNPEAADKFKEINNAHAILTDATKRNIYD [N10Y], with -0.796 ± 0.22; and LYHVLGLDKIATSDDIKKSYRKLALKYHPDKNPDNPEAADKFKEINNAHAILTDATKRNIYD [N10I], with -0.741 ± 0.16.
In the case of LYHVLGLDKHATSDDIKKSYRKLALKYHPDKNPDNPEAADKFKEINNAHAILTDATKRNIYD [N10H], the abundance fitness was -0.493 ± 0.28.
